Source: patent US20200171163A1 (Daiichi Sankyo, published 2020)

T1: human CDH6 (full-length, on cells) (human, UniProt P55285 54-790)
T1 construct: also called hCDH6; full-length hCDH6
T1 sequence: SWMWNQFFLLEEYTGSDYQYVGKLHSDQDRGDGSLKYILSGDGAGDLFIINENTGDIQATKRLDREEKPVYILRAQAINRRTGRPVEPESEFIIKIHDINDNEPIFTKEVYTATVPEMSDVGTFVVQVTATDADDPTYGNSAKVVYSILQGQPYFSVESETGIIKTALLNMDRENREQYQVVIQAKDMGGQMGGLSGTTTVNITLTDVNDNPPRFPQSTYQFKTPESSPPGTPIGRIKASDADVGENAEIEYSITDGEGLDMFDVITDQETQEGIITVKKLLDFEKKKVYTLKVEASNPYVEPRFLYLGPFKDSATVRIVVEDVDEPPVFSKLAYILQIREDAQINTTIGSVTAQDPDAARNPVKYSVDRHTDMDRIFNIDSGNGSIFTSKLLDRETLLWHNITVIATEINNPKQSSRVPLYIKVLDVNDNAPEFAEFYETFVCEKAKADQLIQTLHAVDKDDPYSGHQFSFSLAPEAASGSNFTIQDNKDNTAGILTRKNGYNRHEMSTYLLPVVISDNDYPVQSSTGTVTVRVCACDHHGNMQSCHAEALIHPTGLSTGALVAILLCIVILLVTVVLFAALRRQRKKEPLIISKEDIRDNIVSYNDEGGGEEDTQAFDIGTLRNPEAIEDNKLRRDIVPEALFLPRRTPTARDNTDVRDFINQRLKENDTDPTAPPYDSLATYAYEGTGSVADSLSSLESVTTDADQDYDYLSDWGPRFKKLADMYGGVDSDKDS

T2: cynomolgus monkey CDH6 (on cells) (cynomolgus monkey, UniProt P55285 54-790 (human entry))
T2 construct: Expressed from pcDNA3.1-cynoCDH6; also called cynoCDH6
T2 sequence: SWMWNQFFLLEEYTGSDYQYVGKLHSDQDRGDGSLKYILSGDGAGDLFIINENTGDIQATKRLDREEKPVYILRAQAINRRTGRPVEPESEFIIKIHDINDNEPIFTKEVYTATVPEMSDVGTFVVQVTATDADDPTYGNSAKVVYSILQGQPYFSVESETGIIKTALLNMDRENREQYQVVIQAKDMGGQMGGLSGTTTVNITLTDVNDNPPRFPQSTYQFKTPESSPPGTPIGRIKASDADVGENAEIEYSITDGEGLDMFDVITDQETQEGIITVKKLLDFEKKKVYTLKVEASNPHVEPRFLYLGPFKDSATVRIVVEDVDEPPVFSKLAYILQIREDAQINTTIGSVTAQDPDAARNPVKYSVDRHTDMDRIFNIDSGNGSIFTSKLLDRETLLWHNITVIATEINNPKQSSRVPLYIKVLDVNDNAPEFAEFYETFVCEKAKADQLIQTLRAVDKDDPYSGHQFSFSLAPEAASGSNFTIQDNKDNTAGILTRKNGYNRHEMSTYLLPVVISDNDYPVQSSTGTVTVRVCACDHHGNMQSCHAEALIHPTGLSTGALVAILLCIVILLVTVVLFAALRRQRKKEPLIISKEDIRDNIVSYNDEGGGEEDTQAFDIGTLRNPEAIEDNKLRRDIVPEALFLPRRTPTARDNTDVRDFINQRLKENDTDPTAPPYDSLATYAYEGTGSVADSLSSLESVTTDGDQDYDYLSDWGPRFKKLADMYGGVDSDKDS

T3: EC5 deletion mutant of human CDH6 (human, UniProt P55285 54-790)
T3 construct: In p3×FLAG-CMV-9; also called EC5-deleted hCDH6
T3 sequence: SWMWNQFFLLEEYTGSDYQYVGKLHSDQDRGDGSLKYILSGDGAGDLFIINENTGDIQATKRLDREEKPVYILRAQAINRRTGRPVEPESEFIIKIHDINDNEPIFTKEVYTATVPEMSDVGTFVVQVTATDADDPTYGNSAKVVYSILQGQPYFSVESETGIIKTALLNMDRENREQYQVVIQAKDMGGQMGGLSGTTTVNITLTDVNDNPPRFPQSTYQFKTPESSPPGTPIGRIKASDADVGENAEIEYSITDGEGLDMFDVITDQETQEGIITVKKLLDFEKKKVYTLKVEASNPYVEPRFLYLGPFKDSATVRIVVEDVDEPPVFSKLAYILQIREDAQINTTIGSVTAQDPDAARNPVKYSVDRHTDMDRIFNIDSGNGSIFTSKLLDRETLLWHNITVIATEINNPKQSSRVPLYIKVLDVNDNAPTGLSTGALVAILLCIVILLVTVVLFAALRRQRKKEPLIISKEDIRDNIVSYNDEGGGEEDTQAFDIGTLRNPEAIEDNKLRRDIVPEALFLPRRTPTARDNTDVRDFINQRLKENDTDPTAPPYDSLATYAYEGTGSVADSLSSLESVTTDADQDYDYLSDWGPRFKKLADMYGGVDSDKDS

B1: human chimeric anti-CDH6 antibody chG019 (antibody, human IgG1)
heavy: not shown
light: DIQMTQSPSLLSASVGDRVTLNCKASQNIYKNLAWYQQKLGEGPKLLIYDANTLQTGIPSRFSGSGSGSDFTLTISSLQPEDVATYFCQQYYSGWAFGGVTNLELKRAVAAPSVFIFPPSDEQLKSGTASVVCLLNNFYPREAKVQWKVDNALQSGNSQESVTEQDSKDSTYSLSSTLTLSKADYEKHKVYACEVTHQGLSSPVTKSFNRGEC
notes: Human IgG1/kappa chimera; also called chG019 antibody; chimeric G019 antibody
B2: anti-CDH6 antibody NOV0712 (antibody, V domains shown)
VH: QVQLLESGGGLVQPGGSLRLSCAASGFTFSSHGMHWVRQAPGKGLEWVSVISGSGSNTGYADSVKGRFTISRDNSKNTLYLQMNSLRAEDTAVYYCARQWGSYAFDSWGQGTLVTVSS
VL: DIQMTQSPSSLSASVGDRVTITCRASQSISSYLNWYQQKPGKAPKLLIYAVSTLQSGVPSRFSGSGSGTDFTLTISSLQPEDFATYYCQQSGTFPPTTFGQGTKVEIKR
notes: also called NOV0712 antibody; labeled NOV0712

Tests used:
[1] = biological target: T1, human CDH6 (full-length, on cells); assay: flow cytometry, MFI vs antibody concentration; 293α cells transfected with pcDNA3.1-hCDH6; PE anti-human IgG Fcγ
Method: (§1) The CDH6-binding activity of the human chimeric anti-CDH6 antibody chG019 purified in 4)-2 was confirmed by flow cytometry. […] The cells were cultured overnight under conditions of 37° C. and 5% CO₂, and thereafter, a cell suspension was prepared. chG019 was added to the suspension of each of these cells. The cells were left standing at 4° C. for 1 hour. Thereafter, the cells were washed twice with PBS supplemented with 5% FBS, and then suspended by the addition of PE-labeled F(ab′)2 Fragment anti-human IgG, Fcγ antibody (Jackson ImmunoResearch Laboratories, Inc.) that had been 500-fold diluted with PBS supplemented with 5% FBS. The cells were left standing at 4° C. for 1 hour. The cells were washed twice with PBS supplemented with 5% FBS, and then re-suspended in PBS supplemented with 5% FBS, followed by detection using a flow cytometer (Canto II; BD Biosciences). The data was analyzed using FlowJo (Tree Star, Inc.). […] In FIG. 5, the abscissa depicts antibody concentration, and the ordinate depicts the amount of the antibody bound, based on mean fluorescence intensity.

[2] = biological target: T2, cynomolgus monkey CDH6 (on cells); assay: flow cytometry, MFI vs antibody concentration; 293α cells transfected with pcDNA3.1-cynoCDH6; PE anti-human IgG Fcγ
Method: as §1

[3] = biological target: T3, EC5 deletion mutant of human CDH6; assay: flow cytometry; 293α cells transfected with EC5-deleted hCDH6 (open) vs untransfected control cells (shaded); APC anti-human IgG
Method: (§2) Thereafter, the cells were suspended by the addition of each of the 4 humanized hG019 antibodies (clone Nos: H01L02, H02L02, H02L03 and H04L02), which had been prepared in Example 5)-5-3, or the anti-CDH6 antibody NOV0712, which had been prepared in Reference Example 1, or human IgG1 (Calbiochem) as a negative control. The cells were left standing at 4° C. for 1 hour. The cells were washed twice with PBS supplemented with 5% FBS, and then suspended by the addition of APC-anti-human IgG goat F(ab′)2 (Jackson ImmunoResearch Laboratories, Inc.) that had been 500-fold diluted with PBS supplemented with 5% FBS. The cells were left standing at 4° C. for 1 hour. The cells were washed twice with PBS supplemented with 5% FBS, followed by detection using a flow cytometer (Canto II; BD Biosciences). The data was analyzed using FlowJo (Tree Star, Inc.). In the histograms of FIGS. 7-1 to 7-6, the abscissa depicts APC fluorescence intensity indicating the amount of the antibody bound, and the ordinate depicts cell count. […] Fluorescence intensity is enhanced when the antibody binds to full-length hCDH6 or each EC domain deletion mutant on cell surface. The human IgG1 control binds to none of the transfected cells.

[4] = biological target: T1, human CDH6 (full-length, on cells); assay: flow cytometry; 293α cells transfected with full-length hCDH6 (open) vs untransfected control cells (shaded); APC anti-human IgG
Method: as §2, with “The cells were cultured overnight under conditions of 37° C. and 5% CO₂, and thereafter, a cell suspension was prepared. […] Thereafter,” for “Thereafter,”

Row | Binder | EC50 (read off the curve) [1] | EC50 (read off the curve) [2] | binding result [3] | binding result [4]
1 | B1 | ~0.01 µg/mL | ~0.01 µg/mL |  | 
2 | B2 |  |  | no binding (tested: not given (single concentration)) | binds
